Measurements from patent US20240174744A1 (SCIRHOM, published 2024).

Experiments:
[1] = biological target: T1, hiR2-FL-P533-T7 (human iRhom2 full length with deletion of P533, 3 x T7 tag) (human, UniProt Q6PJF5 1-856); assay: FACS on MEF-DKO-hiR2-FL-P533- -T7 cells
T1 construct: The change is a deletion of one residue, not a substitution
T1 sequence: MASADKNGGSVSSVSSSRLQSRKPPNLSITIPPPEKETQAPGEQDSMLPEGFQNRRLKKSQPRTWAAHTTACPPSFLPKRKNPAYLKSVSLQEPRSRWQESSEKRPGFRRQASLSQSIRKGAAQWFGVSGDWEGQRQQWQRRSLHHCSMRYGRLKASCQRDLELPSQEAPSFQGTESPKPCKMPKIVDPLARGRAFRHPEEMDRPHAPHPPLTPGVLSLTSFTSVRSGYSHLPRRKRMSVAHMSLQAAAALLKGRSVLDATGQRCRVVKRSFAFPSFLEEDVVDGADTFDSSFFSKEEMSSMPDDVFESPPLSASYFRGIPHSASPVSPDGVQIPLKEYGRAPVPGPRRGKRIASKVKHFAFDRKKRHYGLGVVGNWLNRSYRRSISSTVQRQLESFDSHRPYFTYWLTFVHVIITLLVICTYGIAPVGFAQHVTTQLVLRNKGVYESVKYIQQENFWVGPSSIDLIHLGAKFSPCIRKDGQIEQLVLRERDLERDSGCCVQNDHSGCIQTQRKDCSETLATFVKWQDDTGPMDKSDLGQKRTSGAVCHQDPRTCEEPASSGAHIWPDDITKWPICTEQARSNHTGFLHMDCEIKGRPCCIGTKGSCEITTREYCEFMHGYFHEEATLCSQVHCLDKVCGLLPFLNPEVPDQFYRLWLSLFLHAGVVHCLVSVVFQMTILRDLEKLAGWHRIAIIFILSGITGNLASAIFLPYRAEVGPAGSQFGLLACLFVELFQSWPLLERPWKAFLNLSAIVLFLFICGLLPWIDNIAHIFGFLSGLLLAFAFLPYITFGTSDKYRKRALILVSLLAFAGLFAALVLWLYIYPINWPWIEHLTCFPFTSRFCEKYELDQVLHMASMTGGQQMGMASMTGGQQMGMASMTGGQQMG

[2] = biological target: T2, hiR1-FL-WT-T7 (human iRhom1 full length wild type C-terminally tagged with 3 consecutive copies of the T7 … (human, UniProt Q96CC6 1-855)); assay: FACS on MEF-DKO-hiR1-FL-WT-T7 cells
T2 construct: also called human iRhom1 variant expressed by MEF-DKO-hiR1-FL-WT-T7 cells
T2 sequence: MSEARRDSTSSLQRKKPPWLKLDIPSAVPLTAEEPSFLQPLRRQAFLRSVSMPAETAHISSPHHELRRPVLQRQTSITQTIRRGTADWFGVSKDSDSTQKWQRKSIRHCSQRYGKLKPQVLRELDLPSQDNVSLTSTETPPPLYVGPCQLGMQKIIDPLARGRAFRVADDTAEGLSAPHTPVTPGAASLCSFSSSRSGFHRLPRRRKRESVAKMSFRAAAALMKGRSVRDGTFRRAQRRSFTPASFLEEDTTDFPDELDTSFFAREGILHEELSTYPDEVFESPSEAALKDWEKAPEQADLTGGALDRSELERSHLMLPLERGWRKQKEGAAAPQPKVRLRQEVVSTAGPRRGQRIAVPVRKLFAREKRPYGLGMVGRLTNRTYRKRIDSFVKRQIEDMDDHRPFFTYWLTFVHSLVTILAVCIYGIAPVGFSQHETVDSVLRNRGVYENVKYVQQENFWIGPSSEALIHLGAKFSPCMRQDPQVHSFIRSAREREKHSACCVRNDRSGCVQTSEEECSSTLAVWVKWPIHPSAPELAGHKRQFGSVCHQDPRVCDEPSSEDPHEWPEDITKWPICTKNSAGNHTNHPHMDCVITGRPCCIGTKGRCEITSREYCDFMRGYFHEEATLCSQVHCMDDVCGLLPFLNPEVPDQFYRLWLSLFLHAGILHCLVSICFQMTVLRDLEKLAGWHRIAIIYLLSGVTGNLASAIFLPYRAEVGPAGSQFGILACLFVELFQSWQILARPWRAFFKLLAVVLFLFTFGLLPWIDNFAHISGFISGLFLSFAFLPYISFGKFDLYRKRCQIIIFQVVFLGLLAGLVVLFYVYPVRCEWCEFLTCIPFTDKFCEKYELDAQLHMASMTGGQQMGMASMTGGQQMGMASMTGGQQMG

[3] = biological target: T3, miR2-FL-WT-FLAG (mouse iRhom2 full length wild type C-terminally tagged with the triple-FLAG epitope) (mouse, UniProt Q80WQ6 1-827); assay: FACS on MEF-DKO-miR2-FL-WT-FLAG cells
T3 construct: also called expressed by MEF-DKO-miR2-FL-WT-FLAG cells
T3 sequence: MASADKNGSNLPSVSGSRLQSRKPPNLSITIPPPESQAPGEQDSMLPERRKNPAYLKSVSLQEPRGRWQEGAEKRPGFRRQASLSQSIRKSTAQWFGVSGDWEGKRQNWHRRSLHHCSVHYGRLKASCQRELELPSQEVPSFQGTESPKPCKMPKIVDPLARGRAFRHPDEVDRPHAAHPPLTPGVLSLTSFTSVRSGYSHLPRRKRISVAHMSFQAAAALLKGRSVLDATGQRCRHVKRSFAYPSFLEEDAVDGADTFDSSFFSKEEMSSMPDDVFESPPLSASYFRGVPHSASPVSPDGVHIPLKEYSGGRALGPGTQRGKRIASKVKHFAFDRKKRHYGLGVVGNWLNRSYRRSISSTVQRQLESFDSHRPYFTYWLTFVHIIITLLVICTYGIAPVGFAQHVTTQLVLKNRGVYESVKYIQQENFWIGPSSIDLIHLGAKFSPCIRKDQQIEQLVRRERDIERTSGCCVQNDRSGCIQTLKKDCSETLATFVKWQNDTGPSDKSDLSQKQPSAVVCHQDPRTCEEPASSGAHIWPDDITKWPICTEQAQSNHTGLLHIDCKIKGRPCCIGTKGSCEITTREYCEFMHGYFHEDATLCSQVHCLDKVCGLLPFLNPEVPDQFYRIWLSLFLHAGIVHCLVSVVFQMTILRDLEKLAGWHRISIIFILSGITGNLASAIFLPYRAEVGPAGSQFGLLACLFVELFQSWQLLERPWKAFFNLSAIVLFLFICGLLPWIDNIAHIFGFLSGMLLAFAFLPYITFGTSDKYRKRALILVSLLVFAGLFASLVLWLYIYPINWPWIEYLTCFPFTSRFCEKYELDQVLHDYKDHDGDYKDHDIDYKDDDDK

Measured: binding result

B1: antibody 3 (antibody, V domains shown)
VH: QVTLKESGPGILQPSQTLSLTCSFSGFSLTTFAMGIGWVRQPSGKGLEWLAHIWWDGEKYNNPVLKSRLTISKDTSKNQVFLRIANVDTPDTATYYCARISSIYYIIDNWGQGTSVTVSS
VL: DIVLTQSPATLSVTPGHSVSLSCRASQSISNNLHWYQKKSHESPRLLIKYVSQSISGIPSRFSGSGSGTDFTLSINSVETEDFGMYFCQQSYNWPLTFGAGTKLELK
notes: Mouse IgG, kappa light chain; also called clone #3; purified antibody 3
no binding (tested: 3 µg/ml): all assays above
